This is an account of results in the supplement of paper PMC9170038.

The subject of this series is MS2 coat protein. The series can be described thus: apparent KD of MS2 coat protein; designed switch direction (-1 OFF switch, 1 ON switch): -1; higher = weaker reporter binding. The method in brief: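 Three titration conditions were used: no input, 200 uM small-molecule ligand, and an oligonucleotide input. In each, SNAP-549-labelled MS2 coat protein was raised from 0.7 or 1.5 nM, doubling, to 3 µM over designed RNA switches transcribed on Illumina chips by stalled E. coli RNA polymerase. Curve fits of normalised cluster fluorescence gave values whose per-design median over clusters is the apparent KD.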

The mark [1] stands for this setting: Eterna round: R95, input ligand: microRNA oligo, concentration not stated.
The mark [2] stands for this setting: input ligand: microRNA oligo, concentration not stated.
[3] abbreviates: Eterna round: R95, input ligand: FMN 200 uM.
Where [4] appears, read: Eterna round: R95, input ligand: none.

Consider “GGGUGACAUGAGGAUCACCCAUGUCAGGAUAUGAUACUAUGUACUUCGGUACAUAGUAUCAGAAGGGACAUCAU [Ex1-3: 14] (puzzle: Exclusion 1)”, for which the “apparent KD of MS2 coat protein” value under setting [1] amounted to 216 nM.
For “GGGUGACAUGAGGAUCACCCAUGUCAGGAUAUGGGCUCGGGCUCGAAAGGGUCUGGGUCUAGAAGGGACUGCCC [-36.1, -35.1 kcal, 22%A (-3 GC series)] (Eterna round: R97, puzzle: Exclusion 1)”, the “apparent KD of MS2 coat protein” value was 137 nM (input ligand: FMN 200 uM) and 67 nM (input ligand: none).
In the same order, the values of “GGGUGUCGAGUUAGGAUAUCGAUGCCGUAACGGCUCGAGAAGGGACUUGAGGAUCACCCAAGUCUGGUCGAGGC [Rierariis] (Eterna round: R97, puzzle: Brourd's mod of Exclusion 4)” are 23.4 nM and 18.4 nM.
As for “GGUACACAUGAGGAUCACCCAUGUCAGGAUAUCUGGAUACUCUUUAUUUUAGAUAUCCAGAGAAGGGACGUGCC [Ex1-3: 9Z] (puzzle: Exclusion 1)”, the “apparent KD of MS2 coat protein” value under setting [1] amounted to 29.7 nM.
Consider “GGUACUCAAAGAGUACCAAUACGAACAUGAGGAUCACCCAUGUAGGAUAUGCUACUCAAAGAGUAGCAGAAGGAUAUGAACCUC [Far Half Aptamer v10] (Eterna round: R96, puzzle: Exclusion NG 3)”, for which the “apparent KD of MS2 coat protein” value came to 407 nM (input ligand: FMN 200 uM), 204 nM under setting [2] and 227 nM (input ligand: none).
Regarding “GGUAGAGAGCAGGAUAUCUUGGGUAAGUAUUGUAGAGAAGGGCUCACAUGAGGAUCACCCAUGUGGUCCAAGAU [JL Dibiri mod 06] (puzzle: Exclusion 6)”, under setting [1], the “apparent KD of MS2 coat protein” value turned out to be 12.8 nM.
In the case of “GGUCCUGAUGAUUUCCUAUACAUGAGGAUCACCCAUGUAUGUUUAUUUUGUUUUUAGCUUUUUGGUCGUCAAUAAUA [Mod-Hoo-honey-3] (Eterna round: R97, puzzle: Sensor, turn-off variant 1)”, the “apparent KD of MS2 coat protein” value was 43.3 nM (input ligand: FMN 200 uM) and 43.4 nM (input ligand: none).
With “GGUCCUGAUGAUUUUCUAUACAUGAGGAUCACCCAUGUAUGUGUAUUUUGUUUUUCGCUUUUUGGUCGUCAAUAAUA [Mod-Hoo-honey] (Eterna round: R97, puzzle: Sensor, turn-off variant 1)”, the “apparent KD of MS2 coat protein” value reads like this: (input ligand: FMN 200 uM) 43.8 nM; (input ligand: none) 44.3 nM.
Turning to “GGUCCUGAUGAUUUUCUAUACAUGAGGAUCACCCAUGUAUGUUUAUUUUGUUUUUCGCUUUUUGGUCGUCAAUAAUA [Honey] (Eterna round: R97, puzzle: Sensor, turn-off variant 1)”, the “apparent KD of MS2 coat protein” value is, setting by setting: (input ligand: FMN 200 uM) 44.1 nM; (input ligand: none) 41.6 nM.
In the same order, the values of “GGUCGGCGAGGAUAUACAUGAGGAUCACCCAUGUGAUAGAUUAUCGCGAAAGCGUAAUGUAGAAGGCGCUGACG [jl-ex3-4.10 jl mod] (Eterna round: R97, puzzle: Exclusion 3)” are 1280 nM and 40.7 nM.
In the same order, the values of “GGUCUACAUGAGGAUCACCCAUGUUAGGAUAUGCUUCGUCGGGCUAUACACGGCGGAUGUAGAAGGGACCUGGU [Eternabot (L1) Solution 83] (Eterna round: R97, puzzle: Exclusion 1)” are 16.7 nM and 20.2 nM.
For “GGUCUGCGAGGAUAUACAUGAGGAUCACCCAUGUGCGAGAAACUAGUGAGGUCGAUUGGUAGAAGGCGCGGACG [Mat - Exclusion 3 - Mod of JL D83] (puzzle: Exclusion 3)”, the “apparent KD of MS2 coat protein” value runs as follows: under setting [3], 74.1 nM; under setting [1], 113 nM; under setting [4], 210 nM.
For “GGUCUGCGAGGAUAUACAUGAGGAUCACCCAUGUGCGUGAUACUAGUGAGGUCGGUUGGUAGAAGGCGCGGACG [JL-ex3-2.08 salish99 mod] (puzzle: Exclusion 3)”, in that order: 128 nM, 245 nM and 649 nM.
In the same order, the values of “GGUGAGCGAGGAUAUACAUGAGGAUCACCCAUGUGAGAGAAAUAAGUGAGGAAGAAAAGUAGAAGGCGCGAACG [Mat - Exclusion 3 - Mod of Salish D46] (puzzle: Exclusion 3)” are 114 nM, 25.3 nM and 29.3 nM.
As for “GGUGCGUGUGUGAGGAUAUGCUGGUCCUUGGAUCAGCAGAAGGCACAUGAGGAUCACCCAUGUGGUGUCGUACC [salish99_Bmod_Ex4_029] (puzzle: Brourd's mod of Exclusion 4)”, the “apparent KD of MS2 coat protein” value under setting [1] was determined as 232 nM.
The same measure, in the same setting: to “GGUGCGUUUGUGAGGAUAUGCUGGUCCUUGGUUCGGCAGAAGGCACAUGAGGAUCACCCAUGUGGUGUCGUCCC [salish99_Bmod_Ex4_046] (puzzle: Brourd's mod of Exclusion 4)” belongs 32 nM.
As for “GGUGGACAUGAGGAUCACCCAUGUGAGGAUAUCGGCUAUCUUCUCGCUGUCGGUUGCUCGAGAAGGCACAUUGU [Exclusion 1 V94] (Eterna round: R96, puzzle: Exclusion 1)”, the “apparent KD of MS2 coat protein” value reads like this: (input ligand: FMN 200 uM) 112 nM; under setting [2], 50.1 nM; (input ligand: none) 64.9 nM.
With “GGUGGACAUGAGGAUCACCCAUGUGAGGAUAUCGGCUAUCUUCUCGCUGUCGGUUGCUCGAGAAGGCACAUUGU [Exclusion 1 V94] (puzzle: Exclusion 1)”, the “apparent KD of MS2 coat protein” value under setting [1] amounted to 52.2 nM.
The same measure, in the same setting: to “GGUGGACAUGAGGAUCACCCAUGUGAGGAUAUCGGCUGGCUACUCGCUGACGGCUGCUCGAGAAGGCGCAUUGU [Exclusion 1 V88] (puzzle: Exclusion 1)” belongs 41.7 nM; to “GGUGGACAUGAGGAUCACCCAUGUGAGGAUAUCGGCUGGCUAGUGGCGGCUGGCUUCUCGAGAAGGCGCAUAGU [Exclusion 1 V79] (puzzle: Exclusion 1)”, 42.2 nM.
Consider “GGUGGGCUAGGAUAUGCUUUGGGAGGGCAUUCCUUCGAUAAACUUGAGGAUCACCCAAGUAGAAGGAGCUUGCC [salish99_ex2_r4_022] (Eterna round: R97, puzzle: Exclusion 2)”, for which the “apparent KD of MS2 coat protein” value is, setting by setting: (input ligand: FMN 200 uM) 33.9 nM; (input ligand: none) 15.3 nM.
Take “GGUUAGAUGGUAGGAUAUCCAUAUCGAGUGACCCUUUCAUAACAUGAGGAUCACCCAUGUCGGUGGGAGAAGGGCCGUACGGCG [salish99_ExNG02_R04_011] (Eterna round: R96, puzzle: Exclusion NG 2)”: the “apparent KD of MS2 coat protein” value reads like this: (input ligand: FMN 200 uM) 35.5 nM; under setting [2], 38.3 nM; (input ligand: none) 33.2 nM.
Regarding “GGUUAGCGAGGAUAUACAUGAGGAUCACCCAUGUGAUCCUAAGGCUGAUCAAGCCUAUGUAGAAGGCGCAAAUC [salish99_ex3_r4_008] (Eterna round: R97, puzzle: Exclusion 3)”, the “apparent KD of MS2 coat protein” value (input ligand: FMN 200 uM) is 40.1 nM and the “apparent KD of MS2 coat protein” value (input ligand: none) stood at 227 nM.
“GGUUGGCGAGGAUAUACAUGAGGAUCACCCAUGUGAGAGAAACUAGUGAGGUCGAUUGGUAGAAGGCGCUGACG [Mat - Exclusion 3 - Mod of JL D81] (puzzle: Exclusion 3)”: the “apparent KD of MS2 coat protein” value under setting [3] stood at 25.3 nM, the “apparent KD of MS2 coat protein” value under setting [1] was found to be 204 nM and the “apparent KD of MS2 coat protein” value under setting [4] amounted to 129 nM.
